Reference: patent US20100233758A1

Target: glycoprotein D of HSV-1 KOS/tk12 (wild type HSV-1 KOS carrying a lacZ reporter gene) (herpes simplex virus 1 (HSV-1 KOS))
Experiment: cell-based or functional assay

recombinant sHveA102 protein (receptor)
percentage of cells infected with the virus (X-gal staining): 70%
